From paper PMC2425489

What was measured:
Hoxa2;Pbx1a [1] = biological target: T1, Hoxa2;Pbx1a (mouse?;, UniProt P31245;P41778 1-372;1-430, |); test: EMSA
Pbx1a;Prep1 [2] = biological target: T2, Pbx1a;Prep1 (;, UniProt P41778;P55347 1-430;1-436, |); test: EMSA
T2 sequence 1: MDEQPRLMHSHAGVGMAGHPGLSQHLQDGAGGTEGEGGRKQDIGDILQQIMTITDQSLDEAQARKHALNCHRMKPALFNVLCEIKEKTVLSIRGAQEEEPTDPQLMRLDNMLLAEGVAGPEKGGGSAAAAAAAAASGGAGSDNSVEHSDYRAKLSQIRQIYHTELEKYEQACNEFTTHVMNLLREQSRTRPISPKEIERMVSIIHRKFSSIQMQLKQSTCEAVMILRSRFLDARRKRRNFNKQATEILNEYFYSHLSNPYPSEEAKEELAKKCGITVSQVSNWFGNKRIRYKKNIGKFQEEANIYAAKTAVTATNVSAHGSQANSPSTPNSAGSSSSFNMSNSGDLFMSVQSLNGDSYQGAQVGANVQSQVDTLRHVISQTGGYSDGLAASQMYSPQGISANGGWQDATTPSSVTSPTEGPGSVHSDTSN
T2 sequence 2: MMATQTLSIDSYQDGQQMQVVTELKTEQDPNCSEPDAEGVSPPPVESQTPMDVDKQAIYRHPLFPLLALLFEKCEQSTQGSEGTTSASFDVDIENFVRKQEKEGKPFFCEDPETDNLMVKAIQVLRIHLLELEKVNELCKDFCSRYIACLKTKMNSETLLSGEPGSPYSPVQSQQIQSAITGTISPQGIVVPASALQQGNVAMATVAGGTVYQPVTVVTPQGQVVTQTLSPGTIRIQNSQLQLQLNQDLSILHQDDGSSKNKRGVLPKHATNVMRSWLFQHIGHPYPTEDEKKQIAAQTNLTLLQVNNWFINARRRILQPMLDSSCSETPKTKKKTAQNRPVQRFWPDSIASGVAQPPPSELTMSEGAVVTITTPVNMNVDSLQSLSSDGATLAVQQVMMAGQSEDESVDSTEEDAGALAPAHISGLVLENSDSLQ

Hoxa2 = Hoxa2 (UniProt P31245 1-372); test: EMSA
Hoxa1 = Hoxa1 (UniProt P09022 1-331); test: EMSA
Hoxa1(WM-AA) = Hoxa1(WM-AA) (UniProt P09022 1-331, W203A;M204A); test: EMSA
Hoxa2(QN-AA) (Hoxa2*) = Hoxa2(QN-AA) (Hoxa2*) (UniProt P31245 1-372, Q188A;N189A); test: EMSA
Hoxa1(WM-AA);Pbx1a = Hoxa1(WM-AA);Pbx1a (mouse?;, UniProt P09022;P41778 1-331;1-430, W203A;M204A|); test: EMSA
[3] = biological target: Hoxa2(QN-AA) (Hoxa2*);Pbx1a (mouse?;, UniProt P31245;P41778 1-372;1-430, Q188A;N189A|); test: EMSA
Hoxa2;Pbx1a [4] = biological target: T1, Hoxa2;Pbx1a; test: competition
Pbx1a;Prep1 [5] = biological target: T2, Pbx1a;Prep1; test: competition

Measured: binding result

T1 sequence (P31245 whole entry, one chain of several): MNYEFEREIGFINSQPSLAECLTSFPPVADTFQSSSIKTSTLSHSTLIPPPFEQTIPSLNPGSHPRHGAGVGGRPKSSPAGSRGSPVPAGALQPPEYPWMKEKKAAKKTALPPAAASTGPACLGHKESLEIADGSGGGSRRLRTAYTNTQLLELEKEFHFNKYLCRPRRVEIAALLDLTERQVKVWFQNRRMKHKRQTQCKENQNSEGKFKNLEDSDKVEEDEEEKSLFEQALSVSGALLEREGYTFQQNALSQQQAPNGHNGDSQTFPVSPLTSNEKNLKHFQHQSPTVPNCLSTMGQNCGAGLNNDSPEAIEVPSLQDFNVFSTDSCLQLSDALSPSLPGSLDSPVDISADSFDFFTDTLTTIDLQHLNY
Hoxa2, sequence (P31245 whole entry): as the sequence (P31245 whole entry, one chain of several) above
Hoxa1(WM-AA);Pbx1a, sequence (P09022 whole entry W203A/M204A, one chain of several): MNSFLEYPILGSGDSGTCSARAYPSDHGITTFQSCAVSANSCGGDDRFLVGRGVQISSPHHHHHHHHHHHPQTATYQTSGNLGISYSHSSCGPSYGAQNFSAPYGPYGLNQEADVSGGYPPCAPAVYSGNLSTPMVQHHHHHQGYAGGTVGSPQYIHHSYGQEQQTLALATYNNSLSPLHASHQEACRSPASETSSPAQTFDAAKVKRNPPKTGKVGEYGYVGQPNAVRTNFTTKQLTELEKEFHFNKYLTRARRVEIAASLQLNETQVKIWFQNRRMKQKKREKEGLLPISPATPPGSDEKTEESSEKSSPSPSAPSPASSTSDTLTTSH
Hoxa1(WM-AA), sequence (P09022 whole entry W203A/M204A): as the sequence (P09022 whole entry W203A/M204A, one chain of several) above
Hoxa2(QN-AA) (Hoxa2*);Pbx1a, sequence (P31245 whole entry Q188A/N189A, one chain of several): as the sequence (P31245 whole entry, one chain of several) above, with Q188A, N189A counted along it
Hoxa2(QN-AA) (Hoxa2*), sequence (P31245 whole entry Q188A/N189A): as the sequence (P31245 whole entry, one chain of several) above, with Q188A, N189A counted along it
Hoxa1, sequence (P09022 whole entry): as the sequence (P09022 whole entry W203A/M204A, one chain of several) above, with A203W, A204M counted along it

B1: HRE* (mutated HRE) (dsDNA)
DNA 1: TTTCAAAGTTGGTGGGGGAAGACCTCG
DNA 2: CGAGGTCTTCCCCCACCAACTTTGAAA
no binding: Hoxa2;Pbx1a [1] | Pbx1a;Prep1 [2] | Hoxa2

B2: HRE (dsDNA)
DNA 1: TTTCAAAGTTCATCAATCAAGACCTCG
DNA 2: CGAGGTCTTGATTGATGAACTTTGAAA
no binding: Hoxa1 | Hoxa1(WM-AA) | Hoxa2(QN-AA) (Hoxa2*) | Hoxa1(WM-AA);Pbx1a | [3]

B3: comp* (unlabelled mutated HRE) (dsDNA)
DNA 1: TTTCAAAGTTGGTGGGGGAAGACCTCG
DNA 2: CGAGGTCTTCCCCCACCAACTTTGAAA
no binding: Hoxa2;Pbx1a [4] | Pbx1a;Prep1 [5]
